# Patent US20120058906A1
# What was measured:
# [1] = target: rHuman ErbB2/Fc Chimera, CF (R&D Systems Cat#1129-ER) (human) (UniProt P04626); experiment: MSD ECL multi-spot assay, antigen spotted on plate, Fab […]; blank spot 2877
# [2] = target: rHuman HGF R/c-MET/Fc Chimera, CF (R&D Systems Cat#358-MT/CF) (human) (UniProt P08581); experiment: as above
# [3] = target: rHuman IGF-1 sR (IGF-1 sR), CF (R&D Systems Cat#391-GR) (human) (UniProt P08069); experiment: as above
# [4] = target: rHuman CD44/Fc Chimera, CF (R&D Systems Cat#3660-CD) (human) (UniProt P16070); experiment: MSD ECL multi-spot, Fab 0.43 uM, blank 879
# [5] = target: rHuman EGF R/Fc Chimera, CF (R&D Systems Cat#344-ER) (human) (UniProt P00533); experiment: MSD ECL multi-spot, Fab 0.43 uM, blank 879
# [6] = target: rHuman HGF R/c-MET/Fc Chimera, CF (R&D Systems Cat#358-MT/CF) (human) (UniProt P08581); experiment: MSD ECL multi-spot, Fab 0.43 uM, blank 879
# [7] = target: Recombinant Human DLL4 (R&D Systems Cat#1506-D4/CF) (human) (UniProt Q9NR61); experiment: ECL (MSD Multi-Spot) binding, antigen spotted on plate, Fab at […]; blank spot 250
# [8] = target: Recombinant Human DLL4 (R&D Systems Cat#1506-D4/CF) (human) (UniProt Q9NR61); experiment: ECL (MSD Multi-Spot) binding, antigen spotted on plate, Fab at […]; blank spot 294
# [9] = target: rHuman P-Cadherin/Fc Chimera, CF (R&D Systems Cat#861-PC) (human) (UniProt P22223); experiment: as above
# [10] = target: Recombinant Human DLL4 (R&D Systems Cat#1506-D4/CF) (human) (UniProt Q9NR61); experiment: ECL (MSD Multi-Spot) binding, antigen spotted on plate, Fab at 125 nM; blank spot 403
# [11] = target: Recombinant Human DLL4 (R&D Systems Cat#1506-D4/CF) (human) (UniProt Q9NR61); experiment: ECL (MSD Multi-Spot) binding, antigen spotted on plate, Fab at 250 nM; blank spot 590
# [12] = target: rHuman P-Cadherin/Fc Chimera, CF (R&D Systems Cat#861-PC) (human) (UniProt P22223); experiment: as above
# [13] = target: Recombinant Human DLL4 (R&D Systems Cat#1506-D4/CF) (human) (UniProt Q9NR61); experiment: ECL (MSD Multi-Spot) binding, antigen spotted on plate, Fab at 500 nM; blank spot 680
# [14] = target: rHuman P-Cadherin/Fc Chimera, CF (R&D Systems Cat#861-PC) (human) (UniProt P22223); experiment: as above
# [15] = target: Recombinant Human DLL4 (R&D Systems Cat#1506-D4/CF) (human) (UniProt Q9NR61); experiment: ECL (MSD Multi-Spot) binding, antigen spotted on plate, Fab at 7.8 nM; blank spot 316
# [16] = target: rHuman P-Cadherin/Fc Chimera, CF (R&D Systems Cat#861-PC) (human) (UniProt P22223); experiment: as above
# [17] = target: Recombinant Human DLL4 (R&D Systems Cat#1506-D4/CF) (human) (UniProt Q9NR61); experiment: ECL (MSD Multi-Spot) binding, antigen spotted on plate, Fab at 62.5 nM; blank spot 268
# [18] = target: rHuman P-Cadherin/Fc Chimera, CF (R&D Systems Cat#861-PC) (human) (UniProt P22223); experiment: as above
# [19] = target: Recombinant Human DLL4 (R&D Systems Cat#1506-D4/CF) (human) (UniProt Q9NR61); experiment: ECL (MSD Multi-Spot) binding, antigen spotted on plate, Fab at 1000 nM; blank spot 1133
# [20] = target: rHuman P-Cadherin/Fc Chimera, CF (R&D Systems Cat#861-PC) (human) (UniProt P22223); experiment: as above
# [21] = target: rHuman EGF R/Fc Chimera, CF (R&D Systems Cat#344-ER) (human) (UniProt P00533); experiment: MSD ECL multi-spot assay, antigen spotted on plate, Fab 0.51 uM; blank spot 1393
# [22] = target: rHuman Erythropoietin R/Fc Chimera, CF (R&D Systems Cat#963-ER) (human) (UniProt P19235); experiment: as above
# rHuman Erythropoietin R/Fc Chimera, CF (R&D Systems Cat#963-ER) (human), sequence (P19235 25-250, change not shown): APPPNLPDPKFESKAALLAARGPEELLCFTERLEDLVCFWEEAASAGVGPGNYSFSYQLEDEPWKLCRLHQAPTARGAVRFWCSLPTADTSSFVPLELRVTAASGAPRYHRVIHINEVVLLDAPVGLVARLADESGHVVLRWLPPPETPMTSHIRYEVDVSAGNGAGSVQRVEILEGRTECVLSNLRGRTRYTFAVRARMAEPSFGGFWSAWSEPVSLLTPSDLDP
# [23] = target: rHuman Notch-1/Fc Chimera, CF (R&D Systems Cat#3647-TK) (human) (UniProt P46531); experiment: as above
# [24] = target: rHuman P-Cadherin/Fc Chimera, CF (R&D Systems Cat#861-PC) (human) (UniProt P22223); experiment: as above
# [25] = target: rHuman P-Cadherin/Fc Chimera, CF (R&D Systems Cat#861-PC) (human) (UniProt P22223); experiment: ECL (MSD Multi-Spot) binding assay, antigen spotted on plate; Fab 6 nM; blank spot 191
# [26] = target: rHuman P-Cadherin/Fc Chimera, CF (R&D Systems Cat#861-PC) (human) (UniProt P22223); experiment: ECL (MSD Multi-Spot) binding assay, antigen spotted on plate; Fab 17 nM; blank spot 143
# [27] = target: rHuman P-Cadherin/Fc Chimera, CF (R&D Systems Cat#861-PC) (human) (UniProt P22223); experiment: ECL (MSD Multi-Spot) binding assay, antigen spotted on plate; Fab 51 nM; blank spot 335
# [28] = target: rHuman P-Cadherin/Fc Chimera, CF (R&D Systems Cat#861-PC) (human) (UniProt P22223); experiment: ECL (MSD Multi-Spot) binding assay, antigen spotted on plate; Fab 154 nM; blank spot 447
substance,measurement,setting,value
Fab VH1-46_IGHD6-13*01_IGHJ4*01 & A27_IGKJ1*01,ECL signal,[1],6940
same,ECL signal,[2],6310
same,ECL signal,[3],5470
Fab VH1-46_IGHD6-13*01_IGHJ4*01 & B3_IGKJ1*01,ECL signal,[4],1500
same,ECL signal,[5],1230
same,ECL signal,[6],1140
same,ECL signal,[7],528
same,ECL signal,[8],525
same,ECL signal,[9],971
same,ECL signal,[10],912
same,ECL signal,[11],1560
same,ECL signal,[12],2780
same,ECL signal,[13],2320
same,ECL signal,[14],3450
same,ECL signal,[15],407
same,ECL signal,[16],695
same,ECL signal,[17],715
same,ECL signal,[18],1170
same,ECL signal,[19],2780
same,ECL signal,[20],4500
Fab VH4-34_IGHD7-27*01_IGHJ4*01 & L5_IGKJ1*01,ECL signal,[21],1810
same,ECL signal,[22],2560
same,ECL signal,[23],2880
same,ECL signal,[24],3180
Fab VH5-51_IGHD5-18*01>3_IGHJ4*01 & V3-4_IGLJ1*01,ECL signal,[25],358
same,ECL signal,[26],542
same,ECL signal,[27],854
same,ECL signal,[28],1730
